This note sets out measurements from PMC11087797 (2024).

Targets include LA34(3-11)-HLA-E*01:03; LCw3(3-11)-HLA-E*01:03; LA1(3-11)-HLA-E*01:03; LB7(3-11)-HLA-E*01:03; LA80(3-11)-HLA-E*01:03.
Experiment in all cases: SPR; peptide …

B1: soluble CD94-NKG2C NK cell receptor ectodomains (receptor)
chain 1: KNSFTKLSIEPAFTPGPNIELQKDSDCCSCQEKWVGYRCNCYFISSEQKTWNESRHLCASQKSSLLQLQNTDELDFMSSSQQFYWIGLSYSEEHTAWLWENGSALSQYLFPSFETFNTKNCIAYNPNGNALDESCEDKNRYICKQQLI
chain 2: not shown
As usually defined, the Kd is a measure of binding affinity in units of concentration. Read a high Kd as weaker binding. Take B1: the Kd with LA34(3-11)-HLA-E*01:03 was 13.5 µM; with LCw3(3-11)-HLA-E*01:03, 22 µM; with LA1(3-11)-HLA-E*01:03, 11.3 µM; with LB7(3-11)-HLA-E*01:03, 25.5 µM; with LA80(3-11)-HLA-E*01:03, 42.8 µM.

B2: soluble CD94-NKG2A NK cell receptor ectodomains (receptor)
chain 1: B1 chain 1
chain 2: not shown
As to B2, the Kd with LA34(3-11)-HLA-E*01:03 was determined as 1.8 µM; in the assay with LCw3(3-11)-HLA-E*01:03 it was 1.5 µM; with LA1(3-11)-HLA-E*01:03 it was 1.5 µM; with LB7(3-11)-HLA-E*01:03 it was 3.3 µM; with LA80(3-11)-HLA-E*01:03, 2.1 µM.
